Measurements as given in patent US8431111B2, “Peptide imaging agents” (GE Healthcare Limited, priority 2007, dated 2013).
Where a SMILES comes first, the peptide text is derived from it. Bridges are numbered along the chain shown (N, C = ends). The star is where a group is joined. X1 = CC1=CC(C)(C)N(CCCS(=O)(=O)O)c2cc3c(cc21)/C(=C/C=C/C1=[N+](CCCS(=O)(=O)O)c2ccc(S(=O)(=O)[O-])cc2C1(C)CCCC(=O)*)C=C(C(C)(C)C)O3

Assay: Limited acute dose toxicity study in male rats
Type: in vivo, rat
Protocol: A limited acute dose toxicity study was conducted to investigate the tolerance of Compound 6 at 100 times the preclinical imaging dose (50 nmol/kg body weight). The compound was injected intravenously in male rats, and the animals were sacrificed at 1, 14, 21 and 28 days post injection (p.i.). At necropsy, the major organs were inspected for gross pathology, and the kidneys were taken into neutral buffered formalin for subsequent histomorphological evaluation. A weak blue colouration of the skin and a moderate blue colouration of the urine were observed immediately after injection, which disappeared within 1 day p.i. […] The other minor changes seen were incidental and common in young adult laboratory rats. Strong fluorescence staining of blood vessels in the kidney was observed on day 1 p.i.

CC(=O)N[C@@H](C)C(=O)NCC(=O)N[C@@H](CO)C(=O)N[C@H]1CSSC[C@@H](C(=O)N[C@@H](Cc2ccc(O)cc2)C(=O)N[C@@H](CCC(=O)O)C(=O)N[C@H](C(=O)N[C@@H](CCC(=O)O)C(=O)NCC(=O)N[C@H](C(=O)NCC(=O)NCC(=O)NCC(=O)N[C@@H](CCCCNC(=O)CCCC2(C)C(/C=C/C=C3\C=C(C(C)(C)C)Oc4cc5c(cc43)C(C)=CC(C)(C)N5CCCS(=O)(=O)O)=[N+](CCCS(=O)(=O)O)c3ccc(S(=O)(=O)[O-])cc32)C(N)=O)[C@@H](C)O)[C@@H](C)O)NC(=O)[C@H](Cc2c[nH]c3ccccc23)NC(=O)[C@@H]2CSSC[C@H](NC(=O)[C@H](Cc3ccc(O)cc3)NC1=O)C(=O)N[C@@H](CO)C(=O)NCC(=O)N1CCC[C@H]1C(=O)N1CCC[C@H]1C(=O)N[C@@H](CCCNC(=N)N)C(=O)N[C@@H](Cc1ccccc1)C(=O)N[C@@H](CCC(=O)O)C(=O)N2 (stereo partly drawn) [Compound 6] (Ac-AGSCYCSGPPRFECWCYETEGTGGGK(X1)-NH2; disulfide 4-16, 6-14)
Tolerance of single intravenous administration (100 times the anticipated clinical dose): well tolerated and without any drug substance related adverse effects | Gross appearance of the kidneys at necropsy (day 1 p.i.): diffusely green | Time until blue colouration of skin and urine disappeared (i.v., weak blue colouration of skin, moderate of urine, immediately after injection): ≤ 1 day p.i.
